Data on 1 molecule can be found in patent publication US20060183688A1 (LES LABORATORIES SERVIER, published 2006).

In general, Kd refers to the constant that tells how readily two partners part at equilibrium. A higher Kd goes with a looser complex.

No end group written: not given here. fluorescein = fluorescein label at the N-terminal end

Test [1] has as its target T1, fusion protein glutathione-S-transferase-Bcl-XL (UniProt P08515 1-218 = GST; Q07817 1-209).
T1 construct: also called GST-Bcl-XL
Nature of the test: fluorescence polarisation, 15 nM fluorescein-peptide, GST-Bcl-XL titrated 1 nM to 5 uM. Here is the method:
(§1) A 15 nM solution of the peptide obtained in Example 1 labelled with fluorescein at the N-terminal end is mixed with a solution containing the fusion protein GST-Bcl-XL or GST-Bcl-W at a concentration varying from 1 nM to 5 μM in a buffer containing Na₂HPO₄ 20 mM pH 7.4, EDTA 1 mM, NaCl 50 mM, pluronic acid F-68 0.05%. The fluorescence polarisation is then measured by the En Vision apparatus (Packard Perkin-Elmer).
(In fluorescence polarisation assays a small probe gives low polarisation when free and higher when bound to something large.)

Test [2] deals with T2, fusion protein glutathione-S-transferase-Bcl-W (UniProt P08515 1-218 = GST; Q92843 1-171).
T2 construct: also called GST-Bcl-W
Kind of test: fluorescence polarisation, 15 nM fluorescein-peptide, GST-Bcl-W titrated 1 nM to 5 uM. Here is the method: as §1

T1 sequence (P08515 1-218, tags or fused parts left off): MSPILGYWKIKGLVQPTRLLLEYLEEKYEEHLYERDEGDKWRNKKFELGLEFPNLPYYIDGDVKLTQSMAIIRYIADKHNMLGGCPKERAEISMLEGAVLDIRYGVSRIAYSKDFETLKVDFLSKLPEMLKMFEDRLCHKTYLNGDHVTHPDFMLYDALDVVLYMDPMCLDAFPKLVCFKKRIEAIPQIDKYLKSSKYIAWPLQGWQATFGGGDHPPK
T2 sequence (P08515 1-218, tags or fused parts left off): as above

B1: peptide obtained in Example 1 labelled with fluorescein at the N-terminal end (peptide)
peptide: fluorescein-DTRRSMVFARHLREVGDEFRSR
notes: Used at 15 nM in fluorescence polarisation; also called ID; NO.1
B1: the Kd is 215 nM in test [1] and 411 nM in test [2].
